Reference: publication PMC11297201

Target: β-arrestin2 (UniProt P32121)
Assay: BRET, MOR-Nluc and β-arrestin2-Venus
Conditions: for other: Emax, vehicle-subtracted BRET ratio: reference: vehicle

mu-opioid receptor (MOR, mMOR) (from UniProt P42866) DAMGO, 10 min
other: Emax, vehicle-subtracted BRET ratio (sites T370,S375,T376,T379): 0.07 BRET ratio

mu-opioid receptor (MOR, mMOR) (from UniProt P42866) morphine
percent of reference (reference: DAMGO, sites T376,T379): weaker; reference 100

mu-opioid receptor (MOR, mMOR) (from UniProt P42866) morphine, 10 min
other: Emax, vehicle-subtracted BRET ratio (sites S375): 0.008 BRET ratio
